Assay results published in ChEMBL document CHEMBL1142441, “Stereochemical studies on the novel monoamine oxidase B substrates (1R,6S)- and (1S,6R)-3-methyl-6-phenyl-3-aza-bicyclo[4.1.0]heptane” (Bioorg Med Chem, 2008).

What was measured:
[1] = substrate: [H][C@@]12CN(C)CC[C@]1(c1ccccc1)C2; assay: (§1) Activity of 50 nM human recombinant MAOB after 30 mins
[2] = substrate: [H][C@]12CN(C)CC[C@@]1(c1ccccc1)C2; assay: as §1

B1: Amine oxidase [flavin-containing] B (Homo sapiens) (protein)
chain: MSNKCDVVVVGGGISGMAAAKLLHDSGLNVVVLEARDRVGGRTYTLRNQKVKYVDLGGSYVGPTQNRILRLAKELGLETYKVNEVERLIHHVKGKSYPFRGPFPPVWNPITYLDHNNFWRTMDDMGREIPSDAPWKAPLAEEWDNMTMKELLDKLCWTESAKQLATLFVNLCVTAETHEVSALWFLWYVKQCGGTTRIISTTNGGQERKFVGGSGQVSERIMDLLGDRVKLERPVIYIDQTRENVLVETLNHEMYEAKYVISAIPPTLGMKIHFNPPLPMMRNQMITRVPLGSVIKCIVYYKEPFWRKKDYCGTMIIDGEEAPVAYTLDDTKPEGNYAAIMGFILAHKARKLARLTKEERLKKLCELYAKVLGSLEALEPVHYEEKNWCEEQYSGGCYTTYFPPGILTQYGRVLRQPVDRIYFAGTETATHWSGYMEGAVEAGERAAREILHAMGKIPEDEIWQSEPESVDVPAQPITTTFLERHLPSVPGLLRLIGLTTIFSATALGFLAHKRGLLVRV
Km [1]: 221 µM
Km [2]: 221 µM
